Results taken from publication PMC10937712, “Natural variation in OsMYB8 confers diurnal floret opening time divergence between indica and japonica subspecies”.

Target: T1, OsMYB8 (Oryza sativa, UniProt A0A0P0V5Q1 51-278)
T1 sequence: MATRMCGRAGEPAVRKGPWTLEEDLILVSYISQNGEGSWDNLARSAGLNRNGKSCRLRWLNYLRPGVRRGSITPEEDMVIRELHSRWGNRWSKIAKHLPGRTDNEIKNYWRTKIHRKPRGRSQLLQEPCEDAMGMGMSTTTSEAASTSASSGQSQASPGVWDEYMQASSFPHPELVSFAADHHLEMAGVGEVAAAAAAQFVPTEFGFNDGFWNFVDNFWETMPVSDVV
Assay: EMSA; Beyotime chemiluminescent EMSA kit binding buffer (composition, salt, pH not stated), 20 min, room temperature, 5% native PAGE; 5x and 20x cold competitor
Conditions: protein: recombinant; tags: N-terminal GST (pGEX-4T1); label: biotin; blunt

B1: JAR1-P3-probe (dsDNA)
DNA 1: CAGTGTACCTAGTGATGTACCCGCCGAATACGTACGCGTGTATGCATGGGTAGAGA
DNA 2: TCTCTACCCATGCATACACGCGTACGTATTCGGCGGGTACATCACTAGGTACACTG
binding result: binds

B2: JAR1-P1-probe (dsDNA)
DNA 1: AAAATAAATGACTTAGGAAAGAACCAAAACATCTTACATTATAGTATAAAGAAG
DNA 2: CTTCTTTATACTATAATGTAAGATGTTTTGGTTCTTTCCTAAGTCATTTATTTT
binding result: binds
